What was measured:
Int^C-mCitrine-Tom7 = experiment: protein trans-splicing
Int^C-mCitrine-hFis1 = experiment: protein trans-splicing

Tom20-mCherry-Int^N
percent of Tom20-FP1 spliced to the partner (Int^C-mCitrine-Tom7): 30% | percent of Tom20-FP1 spliced to the partner (Int^C-mCitrine-hFis1): 50%
